In patent US20120328625A1:

Legend:
[1] = target: Shh-N in conditioned medium (human) (UniProt Q15465); experiment: cell-based or functional assay
[2] = target: full length human Shh expressed on the cell surface (human) (UniProt Q15465); experiment: cell-based or functional assay

B1: rmHIP (protein, UniProt Q7TN16 18-678, looked up)
chain: FFEGDAKFGERNEGSGARRRRCLNGNPPKRLKRRDRRVMSQLELLSGGEILCGGFYPRVSCCLQSDSPGLGRLENKIFSATNNSECSRLLEEIQCAPCSPHSQSLFYTPERDVLDGDLALPLLCKDYCKEFFYTCRGHIPGLLQTTADEFCFYYARKDAGLCFPDFPRKQVRGPASNYLGQMEDYEKVGGISRKHKHNCLCVQEVMSGLRQPVSAVHSGDGSHRLFILEKEGYVKILTPEGELFKEPYLDIHKLVQSGIKGGDERGLLSLAFHPNYKKNGKLYVSYTTNQERWAIGPHDHILRVVEYTVSRKNPHQVDVRTARVFLEVAELHRKHLGGQLLFGPDGFLYIILGDGMITLDDMEEMDGLSDFTGSVLRLDVDTDMCNVPYSIPRSNPHFNSTNQPPEVFAHGLHDPGRCAVDRHPTDININLTILCSDSNGKNRSSARILQIIKGRDYESEPSLLEFKPFSNGPLVGGFVYRGCQSERLYGSYVFGDRNGNFLTLQQSPVTKQWQEKPLCLGASSSCRGYFSGHILGFGEDELGEVYILSSSKSMTQTHNGKLYKIVDPKRPLMPEECRVTVQPAQPLTSDCSRLCRNGYYTPTGKCCCSPGWEGDFCRIAKCEPACRHGGVCVRPNKCLCKKGYLGPQCEQVDRNVRRVTR
% Inhibition of Gli1 reporter, Conditioned Media N = 1, 4 µg/ml [1]: 103% | % Inhibition of Gli1 reporter, Conditioned Media N = 2, 4 µg/ml [1]: 112% | % Inhibition of Gli1 reporter, Co-Culture N = 1, 4 µg/ml [2]: 124% | % Inhibition of Gli1 reporter, Co-Culture N = 2, 4 µg/ml [2]: 96% | % Inhibition of Gli1 reporter, Co-Culture N = 3, 4 µg/ml [2]: 121%
